{"source": "paper PMC3399532", "about": "(Prion, 2012)", "biological_target": "MoPrP-Fc (mouse, UniProt P04925 23-230)", "sequence (P04925 23-230)": "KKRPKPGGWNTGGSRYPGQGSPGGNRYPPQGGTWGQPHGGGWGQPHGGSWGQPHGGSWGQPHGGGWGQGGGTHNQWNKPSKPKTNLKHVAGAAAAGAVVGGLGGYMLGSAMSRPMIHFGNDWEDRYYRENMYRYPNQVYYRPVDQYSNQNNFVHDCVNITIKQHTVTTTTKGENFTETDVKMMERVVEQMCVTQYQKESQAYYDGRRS", "assay": "ELISA", "data": [{"binder": "mouse (Mo) Dpl (26–155) (domain or fragment) ARGIKHRFKWNRKVLPSSGGQITEARVAENRPGAFIKQGRKLDIDFGAEGNRYYAANYWQFPDGIYYEGCSEANVTKEMLVTSCVNATQAANQAEFSREKQDSKLHQRVLWRLIKEICSAKHCDFWLERG", "values": [{"measurement": "binding result", "result": "binds"}]}]}
